# From the RNAGym collection of RNA variant scans (doi:10.1073/pnas.2313332121)
# B1: TPR t1 (parent)
# chain: GACCAAUCUGCCCUCAGAGCUCGAGAACAUCUUCGGAUGCAGAGGAGGCAGGCUUCGGUGGCGCGAUAGCGCCAACGUCCUCAACCUCCAAUGCAUCCCACCACAUGAUGAUGCCUGAAGAGCCUUGGUUUUUUG
# Variants of: B1
# Experiment: polymerase ribozyme fitness, log enrichment relative to wild type (log ratio); higher = more active; in vitro selection for triplet polymerase activity
# Method in brief: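 Fitness is a logarithmic measure of how a genotype enriched relative to the wild type, with replicate averages weighted by inverse variance. The logarithm uses base 2, and enrichment came from Illumina sequencing of input and output libraries. Those libraries were PCR-built, transcribed mutants of each subunit of a heterodimeric triplet polymerase ribozyme, passed through one triplicate in vitro selection round that included frozen incubation at −7 °C, gel excision of extended constructs and streptavidin-bead capture. Genotypes were kept only if they had ≥10 input reads and ≥1 read per output.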
row,Variant,polymerase ribozyme fitness (log ratio)
1,GACCAAUCUGCGCUCAGAGCUCGAGAACAUCUUCGGAUGCAGAGGAGGCAGGCUUCGGUGGCGCGAUAGCGCCAAUGUCCUCAACCUCCAAUGCAUCCCACCACAUGAUGAUGCCUGAAGAGCCUUGGUUUUUUG [C12G C76U],-0.0382
2,GACCAAUCUGCGCUCAGAGCUCGAGAACAUCUUCGGAUGGAGAGAAGGCAGGCUUUGGUGGCGCGAUAGCGCCAACGUCCUCAACCUCCAAUGCAUCCCACCACAUGAUGAUGCCUGAAGAGCCUUGGUUUUUUG [C12G C40G G45A C56U],-1.34
3,GACCAAUCUGCGCUCAGAGCUCGAGAACAUCUUCGGAUGCAGAGGAGGCAGGCUUCGGUGGCGCGAUAGCGCCAACGUACUCAACCUCCACUGCAUCCCACCACAUGAUGAUGCCUGAAGAGCCUUGGUUUUUUG [C12G C79A A91C],-2.84
4,GACCAAUCUGCGCUCAGAGCUCGAGAACAUCUUCGGAUGCAGAGGAGGCAGGCUUCGGUGGCGCGAUAGCGCCAACGUACUCAACCUCCAAUGCAUCCCACCACAUGAUGAUGCCUGAAGAGCCUUGGUUUUUUG [C12G C79A],-1.01
5,GACCAAUCUGCGCUCAGAGCUCGAGAACAUCUUCGGAUGGAGAGGAGGCAGGCUUCGGUGGCACGAUAGCGCCAACGUCCUCAACCUCCAAUGCAUCCCACCACAUGAUGAUGCCUGAAGAGCCUUGGUUUUUUG [C12G C40G G63A],-1.01
6,GACCAAUCUGCGCUCAGAGCUCGAGAACAUCUUCGGAUGCAGAGGAGGCAGGCUUCGGUGGCGCGAUAGCGCCAACGUCCUCAACCUCCAAUGCAUCCCACCACAUGAUGAUGCCUGAAGUGCCUUGGUUUUUUG [C12G A121U],1.78
7,GACCAAUCUGCGCUCAGAGCUUGAGAACAUCGUCGGAUGCAGAGGAGGCAGGCUUCGGUGGCGCGAUAUCGGCAACGUCCUCAACCUCCAAUGCAUCCCACAACAUGAUGUUGCCUGAAGAUCCUUGGUUUUUUG [C12G C22U U32G G69U C72G C102A A111U G122U],-5.99
8,GACCAAUCUGCGCUCAGAGCUCGAGAACAUCUUCGGAUGCAGAGGAGGCAGGCUUCGGUGGCGCGAUAGCGCCAACGUCCUCAACCUGCAAUGCAUCCCACCACAUGAUGAUGCCUGAAGAGCCUUGGUUUUUUG [C12G C88G],-0.624
9,GACCAAUCUGCGCUCAGAGCUCGAGAACAUCUUCGGAUGCAGAGGAGGCAGGCUUCGGUGGCGCGAUAGCGCCAACGUCCUCAACCUCCAAUGCAUCACACCACAUGAUGAUGCCUGAAGAGCCUUGGUUUUUUG [C12G C98A],-4.17
10,GACCAAUCUGCGCUCAGAGCUCGAGAAUAUCUUCGGAUGCAGAGGAGGCAGGCUUCGGUGGCGCGAUAGCGUCAACGUCCUCAACCUCCAAUGCAUCCCACCACAUGAUGAUGCCUGAAGAGUCGUGGUUUUUUG [C12G C28U C72U C123U U125G],-0.502
11,GACCAAUCUGCGCUCAGAGCUCGAGAACAUCUUCGGAUGCAGAGGAGGCAGGCUUCGGUGGCGCGAUAGCGCCAACGUCCUCAACCUCCAAUGGAUCCCACCACAUGAUGAUGCCUGAAGAGCCUUGGUUUUUUG [C12G C94G],-1.02
12,GACCAAUCUGCGCUCAGAGCUCGAGAACAUCUUCGGAUGCAGAGGAGGCAGGCUUCGGUGGCGCGAUAGGGCCAACGUCCUCAAACUCCAAUGCAUCCCACCACAUGAUGAUGCCUGAAGAGCCUUGGUUUUUUG [C12G C70G C85A],-3.7
13,GACCAAUCUGCGCUCAGAGCUCGAGAACAUCUUCGGAUGCAGAGGAGGCAGGCUUCGGUGGCGAGAUAGCGCCAACGUCCUCAACCUCCAAUGCAUCCCACCACAUGAUGAUGCCUGAAGAGCCUUGGUUUUAUG [C12G C64A U133A],-5.1
14,GACCAAUCUGCGAUCAGAGCUCGGGAACAUCUUCGGAUGCAGAGGAGGCAGGCUUCGGUGGCGCGAUAGCGCCAACGUCCUCAACCUCCAAUGCAUCCCACCACAGGAUGAUGCCUGAAGAGCAUUGGUUUUUUG [C12G C13A A24G U106G C124A],-1.63
15,GACCAAUCUGCGCUCAGAGCUCGAGAACAUCUUAGGAUGCAGAGGAGGCAGGCUUCGGUGGCGCGAUAGCGCCAACGUCCUCAACCUCCAAUGCAUCCCACCACAUGAUGAUGCCUGAAGAGCCUUGGUUUUUUG [C12G C34A],-2.33
16,GACCAAUCUGCGCUCAGAGCUCGAGAACAUCUUUGGAUGCAGAGGAGGCAGGCUUCGGUGGCGCGAUAGCGCCAACGUCCUCAACCUCCAAUGCAUCCCACCACAUGAUGAUGCCUGAAGAGCCUUGGUUUUUUG [C12G C34U],-3.31
17,GACCAAUCUGCGCUCAGAGCUCGAGAACAUCUUCGGAUGCAGAGGAGGCAGGCUUCGGUGGCGCGAUAGCGGCAACGUCCUCAACCCCCAAUGCAUCCCACCACAUGAUGAUGCCUGAAGAGCCUUGGUUUUUUG [C12G C72G U87C],0.909
18,GACCAAUCUGCGCUCAGAGCUCGAGAACAUCUUCGGAUGCAGAGGAGGCAGGCUUCGGUGGCGCGAUAGCGCCAACGUCCUCAACCUCCAAUGGAUCCCACCACCUGAUGAUGCCUGAAGAGCCUUGGUUUUUUG [C12G C94G A105C],-4.19
19,GACCAAUCUGCGCUCAGAGCUCGAGAACAUCUUCGGAUGUAGAGGAGGCAGGCUUCGGUGGCGCGAUAGCGCCAACGUCCUCAACCUCCAAUGCAUUCCACCACAUGAUGAUGCCUGAAGAGCCUUGGUUUUUUG [C12G C40U C97U],-1.01
20,GACCAAUCUGCGCUCAGAGCUCGAGAACAUCUUCGGAUGUAGAGGAGGCAGGCUUCGGUGGCGCGAUAGCGCCAACGUCCUCAACCUCCAAUGCAUCCCACCACAUGAUGAUGCCUGAAGAGCCUUGGUUUUUUG [C12G C40U],-1.51
21,GACCAAUCUGCGCUCAGAGCUCGAGAACAUCUUCGGAUGCAGAGGAGGCAGGCUUCGGUGGCGCGAUAGGGCCAACGUCCUCAACCUCCAAUGCAUCCCACCACAUGAUGAUGCCUGAAGAGCCUUGGUUUUUUG [C12G C70G],-2.83

row,Variant,polymerase ribozyme fitness (log ratio)
1,GACCAAUCUGCGCUCAGAGCUCGAGAACAUCUUCGGAUGCAGAGGAGGCAGGCUUCGGUGGCGCGAUAGUGCCAACGUCCUCAACCUCCAAUGCAUCCCACCACAUGAUGAUGCCUGAAGAGCCUUGGUUUUUUG [C12G C70U],-0.468
2,GACCAAUCUGCGCUCAGAGCUCGAGAACAUCUUCGGAUGCAGAGGAGGCAGGUUUCGGUGGCGCGAUAGCGCCAACGUCCUCAACCUCCAAUCCAUCCCACCACAUGAUGAUGCCUGAAGAGCCUUGGUUUUUUG [C12G C53U G93C],-0.482
3,GACCAAUCUGCGCUCAGAGCUCGAGAACAUCUUCGGAUGCAGAGGAGGCAGGCUUUGGUGGCGCGAUAGCGCCAACGUCCUCAACCUCCAAUGCAUCCCACCACAUGAUGAUGCCUGAAGAGCCUUGGUUUUUUG [C12G C56U],-0.0119
4,GACCAAUCUGCGCUCAGAGCUCGAGAACAUCUUCGGAUGCAGAGGAGGCAGGCUUCGGUGGCGCGAUAGCGCCAACGUCCUCAACGUCGAAUGCAUCCCACCAUAUGAUGAUGCCUGAAGAGCCUUGGUUUUUUG [C12G C86G C89G C104U],-1.35
5,GACCAAUCUGCGCUCAGAGCUCGAGAACAUCUUCGGAUGCAGAGGAGGCAGGCUUUGGUGGCGCGAUAGCGCCAACGUCCUCAACCUCCAAUGCAUCCCCCCACAUGAUGAUGCCUUAAGAGCCUUGGUUUUUUG [C12G C56U A100C G117U],-3.6
6,GACCAAUCUGCGCUCAGAGCUCGAGAACAUCUUCGGAUGCAGAGGAGGCAGGCUUCGGUGGCGCGAUAGCGCCUACGUCUUCAACCUCCAAUGCAUCCCACCACAUGAUGAUGCCUGAAGAGCCUUGGUUUUUUG [C12G A74U C80U],-1.1
7,GACCAAUCUGCGCUCAGAGCUUGAGAACAUCUUCGGAUGCAGAGGAGGCAGGCUUCGGUGGCGCGAUAGCGCCAACGUCCUCAACCUCCAAUGCAUCCCACCACAUGAUGAUGCCUGAAGAGCCUUGGUUUUUUG [C12G C22U],-3.18
8,GACCAAUCUGCGCUCAGAGCUCGAGAACAUCUUCGGAUGCAGAGGAGGCAGGCUUCGGUGGCGCGAUAGCGCCAACGUCCUCAACCUCCAAUGCAUCCCACCAUAUGAUGAUGCCUGAAGAGCCUUGCUUUUAUG [C12G C104U G128C U133A],-0.738
9,GACCAAUCUGCGCUCAGAGCUCGAGAACAUCUUCGGAUGCAGAGGAGGCAGGCUUCGGUGGCGCGAUAGCGCCAUCGUCCUCAACCUCCAAUGGAUCCCACCACAUGAUGAUGCCUGAAGAGCCUUGGUUUUUUG [C12G A75U C94G],-1.33
10,GACCAAUCUGCGCUUAGAGCUCGAGAACAUAUUCGGAUGCAGAAGAAGCAGGCUUCGGUGGCCCGAUAGCGCCAACGUCCUCAUCCUCCAAUGCAUCCCACCACAUGAUCAUGCCUGAAGAGCCUUGGUUUUUUG [C12G C15U C31A G44A G47A G63C A84U G110C],-6.78
11,GACCAAUCUGCGCUUAGAGCUCGAGAACAUCUUCGGAUGCAGAGGAGGCAGGCUUCGGUGACGCGAUAGCGCCAACGUCCUCAACCUCCAAUGCAUCCCACCACAUGAUGAUGCCUGAAGAGCCUUGGUUUUUUG [C12G C15U G61A],-0.982
12,GACCAAUCUGCGCUCAGAGCUCGAGAACAUCUUCGGAUGCAGAGGAGGCAGGCUUCGGUGGCGCGCUAGCGCCAACGUCCUCAACCUCCAAUACAUCCCACCAUAUGAUGAUGCCUGAAGAGCCUUGGUUUUUUG [C12G A66C G93A C104U],-1.71
13,GACCAAUCUGCGCUCAGAGCUCGAGAACAUCUUCGGAUGCAGAGGAGGCAGGCUUCGGUGGCGCGAUAGCGCCAACGUCCUCAACCUCCAAUGCAUCCCACCACAUGAUGAUGCUUGAAGAGCCUUGGUUUUAUG [C12G C115U U133A],-0.348
14,GACCAAUCUGCGCUCAGAGCUCGAGAACAUCUUCGGAUGCAGAGGAGGCAGGCUUCGGUGGCGCGAUAGCGCCAACGUCCUCAACCUCCAAUGCAUCUCACCACAUGAUGAUGCCUGAAGAGCCUUGGUUUUGUG [C12G C98U U133G],-1.82
15,GACCAAUCUGCGCUCAGAGCUCGAGAAGAUCUUCGGUUGCAGAGGAGGCAGGCUUCGGUGGCGCGAUAGCGUCAACGUCCUCAACCUCCAAUGCAUCCCACCACAUGAUUAUGCCUGAAGAGCCUUGGUUUUUUG [C12G C28G A37U C72U G110U],-0.76
16,GACCAAUCUGCGCUCAGAGCUCGAGAACAUCUUCGGAUGCAGAGGAGGCAGGCUUCGGUGGCGCGAUAGCGCCAACGUCCUCAACCUCCAAUGCAUCCCACCACAUGAUGAUGCCUGAUGAGCCUUGGUUUUUUG [C12G A119U],0.00185
17,GACCAAUCUGCGCUCAGAGCUCGAGAAGAUCUUCGGUUGCAGAGGAGGCAGGCUUCGGUGGCGCGAUAGCGCCAACGUCCUCAACCUCCAAUGCAUCCCACCACAUGAUUAUGCCUGAAGAGCCUUGGUUUUUUG [C12G C28G A37U G110U],0.364
18,GACCAAUCUGCGCUCAGAGCUCGAGAACAUCUUCGGAUGCAGAGGAGGCAGGCUUCGGUGGCGCGAUAGUGCCAACGUCCUCAACCUCCAAUGCAUCCCACCACAAGAUGAUGCCUGAAGAGCCUUGGUUUUUUG [C12G C70U U106A],0.277
19,GACCAAUCUGCGCUGAGAGCUCGAGAACAUCUUCGGAUGCAGAGGACGCAGGCUUCGGUGGCGCGAUAGCGCCAACGUCCUGAACCUCCAAUGCAUCCCACCACAUGAUGAUGCCUGAAGAGCCUUGGUUUUUUG [C12G C15G G47C C82G],-4.81
20,GACCAAUCUGCGCUCAGAGCUCGAGAACAUCUUCGGAUGCAGAGGAGGCAGGCUUCGGUGGCGAGAUAGCGCCAACGUCCUCAACCUCCAAUGCAUCCCACCACAUGAUGAUGCCUGAAGAGCCUUGGUUUUUUG [C12G C64A],-6.46
21,GACCAAUCUGCGCUUAGAGCUCGAGAACAUCUUCGGAUGCAGAGGAGACAGGCUUCGGUGACGCGAUAGCGCCAACGUCCGCAACCUCCAAUGCAUCCCACCACAUGAUGAUGCCUGAAGAGUCUUGGUUUUUUG [C12G C15U G48A G61A U81G C123U],-2.3
